B1: HDV Ribozyme (parent)
chain: GGCCGGCAUGGUCCCAGCCUCCUCGCUGGCGCCGGCUGGGCAACAUUCCGAGGGGACCGUCCCCUCGGUAAUGGCGAAUGGGACCCA

Variants of: B1
Assay: self-cleavage, relative activity (ratio to wild type); higher = more cleavage; co-transcriptional

In order of falling self-cleavage:
1. A71G C86A  1.19
2. U47C C66G  1.17
3. C63U G76U  1.15
4. A56C C61A  1.13
5. C49G G76A  1.1
6. U46G C86G  1.01
7. G53C C63U  0.997
8. U79A C85G  0.997
9. C57U C85G  0.984
10. G52U G59U  0.984
11. A70U A71U  0.98
12. G50C A56C  0.978
13. A56C U65A  0.955
14. G67C U69G  0.943
15. C32U U47A  0.943
16. G50U G59U  0.939
17. C14A C63G  0.935
18. G40A G54C  0.926
19. C26A U47G  0.923
20. C7A C26U  0.919
21. A8C C62U  0.918
22. G68C  0.911
23. G52U C64G  0.902
24. A43G G76U  0.892
25. C48A U60G  0.886
26. C48G A56C  0.875
27. C15G U37C  0.875
28. C44A G76A  0.873
29. A51U A70U  0.849
30. C7U C61U  0.831
31. C15A G80A  0.831
32. A71U A87G  0.831
33. C33U G55C  0.831
34. G67U U69A  0.801
35. C66U G67A  0.786
36. C48A A78G  0.776
37. U12G U47A  0.776
38. C61U C66U  0.736
39. U46C C63G  0.72
40. U69A A77G  0.72
41. C63G A71U  0.712
42. C61G C84A  0.708
43. G10A A71G  0.703
44. G40U C58A  0.67
45. A42U A51C  0.665
46. C24A C86U  0.633
47. C14A A87U  0.623
48. G73C G76A  0.604
49. C3U C15G  0.6
50. G39A G59U  0.598
51. G6U A87C  0.592
52. U9C G39A  0.567
53. C22U C61G  0.545
54. G59C A77U  0.534
55. C62U G81A  0.531
56. G31A G59A  0.531
57. G11A A87C  0.521
58. C13U G68A  0.502
59. U9A C63G  0.502
60. G31U G76C  0.479
61. U47G C84G  0.475
62. C4G G59U  0.475
63. C26A G31C  0.453
64. C15U C18U  0.44
65. C26U G81U  0.439
66. G35U A87C  0.432
67. A56C G82U  0.404
68. U12C C61U  0.404
69. G6U A8U  0.403
70. C15G U46A  0.399
71. G11U U47A  0.397
72. A42G G53C  0.391
73. G5U A16C  0.383
74. A51U G82U  0.373
75. A8G G82U  0.369
76. G40C C86A  0.363
77. U47G A77C  0.35
78. G1C C48G  0.346
79. U12G U46A  0.332
80. G11U U65A  0.321
81. G5A G10C  0.308
82. G40C C57A  0.295
83. C21U C66G  0.277
84. C21U G76A  0.271
85. G17C C66A  0.262
86. U23C G81C  0.249
87. G28A G54C  0.237
88. G54A G81U  0.229
89. G6U C7A  0.227
90. C4G C84A  0.225
91. C13A G52U  0.225
92. G73U G74U  0.22
93. U23G A43U  0.219
94. G1A U37C  0.217
95. C18U G73C  0.217
96. U20G G53U  0.208
97. C64A G82C  0.199
98. G2A C63A  0.198
99. G40C G76C  0.197
100. G35A G80A  0.196
101. C44G U79G  0.196
102. U37C U79C  0.193
103. G73A C75G  0.19
104. A71U A78C  0.188
105. C13G A78U  0.185
106. C13U G31U  0.185
107. G38A G68U  0.18
108. G39C A70C  0.175
109. C30A C32U  0.171
110. G68A C75A  0.164
111. C22U G39U  0.163
112. C32A C61A  0.162
113. C18G C64G  0.156
114. C19A U65C  0.155
115. G34C C61U  0.154
116. A8C G39A  0.151
117. U37G G53C  0.145
118. C75U G80C  0.142
119. G31A G81A  0.14
120. A51C A78U  0.133
121. G2C U79A  0.133
122. G25A C64G  0.13
123. C49G G82U  0.123
124. C13G G53C  0.123
125. A16U C21U  0.122
126. G40C U69A  0.119
127. A16U C30G  0.119
128. G34U G73A  0.109
129. G10C C75U  0.109
130. U20A G53U  0.0959
131. U20A C30G  0.095
132. C57U C75A  0.095
133. G2C C48U  0.0923
134. G35U A77C  0.0875
135. C32A A70U  0.0852
136. C4U C33A  0.0845
137. U20G U69G  0.0831
138. C22U G28A  0.0804
139. G2A C14A  0.0804
140. G38A G59A  0.0801
141. C7A U46G  0.0755
142. G11A G82U  0.0744
143. C21A U60C  0.0739
144. C19A G29U  0.0733
145. C15U C30G  0.0707
146. G5C C62A  0.0665
147. U20C G31C  0.0594
148. G25C C64G  0.0573
149. C18G G52C  0.0554
150. C32G A43C  0.0536
151. C7A G81C  0.0536
152. G11U G28U  0.0396
153. C4A U20A  0.0386
154. G11A G34C  0.0378
155. G2C C24G  0.0361
156. G2C G59U  0.0343
157. C3A C4U  0.0341
158. G1A G80U  0.0133
159. U20C U46G  0
160. C4U C21A  0
161. G1A C48A  0
162. C21G C84G  0
163. G17C U27C  0
164. G40C A83U  0
165. C14G A42G  0
166. C4A U20G  0
167. U12G C15G  0

Source: the RNAGym collection of RNA variant scans (doi:10.7554/elife.80360)
